The results in this text go back to patent US6830925.

For data set [1], the target named is T1, Calmodulin Dependent Protein Kinase Substrate.
T1 chain: PLSRTLSVSS

Data set [2] addresses calmodulin (CalBiochem), P0DP23.
The target of another data set is T2, CREBtide.
T2 chain: KRREILSRRPSYR

Another data set concerns the target T3, Syntide 2.
T3 chain: PLARTLSVAGLPGKK

B1: Xpress-CaMK-X1 fusion protein (CaMK-X1 coding sequence fused to the Xpress epitope, stably expressed in HEK293 cells) (protein)
chain: MGRKEEDDCSSWKKQTTNIRKTFIFMEVLGSGAFSEVFLVKQRLTGKLFALKCIKKSPAFRDSSLENEIAVLKKIKHENIVTLEDIYESTTHYYLVMQLVSGGELFDRILERGVYTEKDASLVIQQVLSAVKYLHENGIVHRDLKPENLLYLTPEENSKIMITDFGLSKMEQNGIMSTACGTPGYVAPEVLAQKPYSKAVDCWSIGVITYILLCGYPPFYEETESKLFEKIKEGYYEFESPFWDDISESAKDFICHLLEKDPNERYTCEKALSHPWIDGNTALHRDIYPSVSLQIQKNFAKSKWRQAFNAAAVVHHMRKLHMNLHSPGVRPEVENRPPETQASETSRPSSPEITITEAPVLDHSVALPALTQLPCQHGRRPTAPGGRSLNCLVNGSLHISSSLVPMHQGSLAAGPCGCCSSCLNIGSKGKSSYCSEPTLLKKANKKQNFKSEVMVPVKASGSSHCRAGQTGVCLIM
On to B1, for which the “in vitro kinase assay (32P incorporation) with immunoprecipitated CaMK-X1” value in data set [1] is “In contrast, CaMK-X1 could not phosphorylate control peptide”; in the data set with CREBtide, “CaMK-X1 phosphorylated CREBtide and Syntide 2 in vitro”; with Syntide 2 it was “CaMK-X1 phosphorylated CREBtide and Syntide 2 in vitro”. The “in vitro kinase assay (32P incorporation into peptides) with and without calmodulin” value in data set [2] was “The degree of phosphorylation is augmented in the presence of calmodulin”.

B2: Histidine tagged CaMK-X1 expressed in Sf9 cells and purified with a Ni2+ affinity column (protein)
chain: MGRKEEDDCSSWKKQTTNIRKTFIFMEVLGSGAFSEVFLVKQRLTGKLFALKCIKKSPAFRDSSLENEIAVLKKIKHENIVTLEDIYESTTHYYLVMQLVSGGELFDRILERGVYTEKDASLVIQQVLSAVKYLHENGIVHRDLKPENLLYLTPEENSKIMITDFGLSKMEQNGIMSTACGTPGYVAPEVLAQKPYSKAVDCWSIGVITYILLCGYPPFYEETESKLFEKIKEGYYEFESPFWDDISESAKDFICHLLEKDPNERYTCEKALSHPWIDGNTALHRDIYPSVSLQIQKNFAKSKWRQAFNAAAVVHHMRKLHMNLHSPGVRPEVENRPPETQASETSRPSSPEITITEAPVLDHSVALPALTQLPCQHGRRPTAPGGRSLNCLVNGSLHISSSLVPMHQGSLAAGPCGCCSSCLNIGSKGKSSYCSEPTLLKKANKKQNFKSEVMVPVKASGSSHCRAGQTGVCLIM
For the protein B2, the “in vitro kinase assay (32P incorporation) with Ni2+ purified CaMK-X1” value in data set [1] was “Syntide 2 and CREBtide had higher incorporation of ^32P than the control peptide”; with CREBtide, “CREBtide and Syntide 2 are phosphorylated by the purified CaMK-X1”; in the data set with Syntide 2 it was “CREBtide and Syntide 2 are phosphorylated by the purified CaMK-X1”. Further, the “in vitro kinase assay (rate of peptide phosphorylation) with and without Ca2+ and calmodulin” value in data set [2] was “The rate of phosphorylation is increased in the presence of Ca^2+ and calmodulin”.
